Assay results published in paper PMC4522616 (Emerging Microbes & Infections, 2015).

What was measured:
[1] = molecular target: gp120 of HIV-1 JR-FL (clade B) (HIV-1); assay: BLI
[2] = molecular target: gp120 of HIV-1 93MW965 (clade C) (HIV-1 group M subtype C, isolate …, strain); assay: BLI
[3] = molecular target: gp120 of HIV-1 96ZM651 (clade C) (HIV-1 group M subtype C, isolate 96ZM651, strain); assay: ELISA
[4] = molecular target: gp120 of HIV-1 BaL (clade B) (HIV-1 group M subtype B, isolate BaL …, UniProt Q2MKA8, strain); assay: ELISA
[5] = molecular target: JR-FL Env on pseudovirions (HIV-1 JR-FL (clade B), UniProt Q75760, strain); assay: virus capture assay
[6] = molecular target: T1, C4 peptide VGKAMYAPPIRGQIR (gp120 residues 430 to 444, HXB2 numbering) (HIV-1); assay: crystal structure
T1 chain: VGKAMYAPPIRGQIR

B1: rabbit monoclonal antibody R53 (antibody, V domains shown)
VH: QSLEESGGGPVKPGGTLTLTCKASGIDFSSFYYMCWVRQAPGKGLEWIACIVTDITGESYYATWAKGRFAISKTSSTTVTLQMTSLTAADTATYFCARGDTYGYGDTVYALNLWGPGTLVTVSS
VL: GPVLTQTPPSASEPVGGTVTIKCQASQAIDEYLGWYQQKPGQRPKLLMYYASTLASGVPSRFKGSGSGTQFTLTISDLECADAATYYCQNYYVGSSTNYAFTFGGGTEVVVK
B1 showed a Kd [1] of 1.96 nM, a koff [1] of 0.000309 s⁻¹ and a kon [1] of 157000 M⁻¹ s⁻¹. For the same binder, the Kd [2] was 3.98 nM, the koff [2] was 0.00121 s⁻¹ and the kon [2] was 304000 M⁻¹ s⁻¹. B1: binds [3]; binds [4].

B2: rabbit monoclonal antibody R56 (antibody, V domains shown)
VH: QSLEESGGDLVQPGASLTLTCKASGFSFGNNYDMCWVRQAPGKGLEWIGCIETGSSDSAAYATWAKGRFTISKTSSTTVTLQMTSLTAADTATYFCARNFDLWGPGTLVIVSS
VL: QVLTQTPSSVSTAVGSAVTINCQSSQNVYSNNNLAWFQQKPGQPPRLLIYDASKLASGVPSRFKGSGSGTQFTFTISDVQCDDAATFYCLGGYDCSSGDCAAFGGGTEVVVR
B2: binds [5].

B3: R53 antigen-binding fragment (Fab) (Fab, V domains shown)
VH: QSLEESGGGPVKPGGTLTLTCKASGIDFSSFYYMCWVRQAPGKGLEWIACIVTDITGESYYATWAKGRFAISKTSSTTVTLQMTSLTAADTATYFCARGDTYGYGDTVYALNLWGPGTLVTVSS
VL: GPVLTQTPPSASEPVGGTVTIKCQASQAIDEYLGWYQQKPGQRPKLLMYYASTLASGVPSRFKGSGSGTQFTLTISDLECADAATYYCQNYYVGSSTNYAFTFGGGTEVVVK
B3: binds [6].
